This note sets out measurements from the supplement of paper PMC9112550, “Optimization of the antimicrobial peptide Bac7 by deep mutational scanning” (BMC Biology, 2022).

The data set deals with Escherichia coli TOP10. The data set is described as follows: shrunken log2 fold change of peptide-encoding DNA abundance (4.5 h post-induction vs induction); higher = less antimicrobial activity (less host growth inhibition). The settings on record: time post-induction: 4.5 h; library: site-saturation at positions 5, 18, 19, 20.
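Further: peptides expressed intracellularly from a pBAD plasmid library in pooled LB shake-flask culture, induced with 0.3% L-arabinose, DNA abundance read by NGS, three biological replicates, DESeq2 with apeglm shrinkage.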

For RRIRIRPPRLPRPRPRPQVMPRP, the “shrunken log2 fold change” value was -0.604.
Regarding RRIRLRPPRLPRPRPRPVLDPRP, the “shrunken log2 fold change” value was -0.366.
In the case of RRIRHRPPRLPRPRPRPHYHPRP it was -0.785; in that of RRIRIRPPRLPRPRPRPTVMPRP, -0.0131; in that of RRIRMRPPRLPRPRPRPEQNPRP, 2.47.
For the sequence RRIRRRPPRLPRPRPRPLFYPRP, the “shrunken log2 fold change” value is -0.248.
Under RRIRTRPPRLPRPRPRPSHPPRP stands -0.416; under RRIRLRPPRLPRPRPRPCFSPRP, -0.112; under RRIRTRPPRLPRPRPRPCPKPRP, 0.0604.
In the case of RRIRHRPPRLPRPRPRPVWEPRP it was 0.107; in that of RRIRWRPPRLPRPRPRPHVAPRP, 0.181; in that of RRIRPRPPRLPRPRPRPLYQPRP, -0.0164.
In the case of RRIRTRPPRLPRPRPRPPLNPRP it was -0.183; in that of RRIRKRPPRLPRPRPRPLGFPRP, 0.872.
Turning to RRIRMRPPRLPRPRPRPTAVPRP, the “shrunken log2 fold change” value came to 1.64.
Under RRIRPRPPRLPRPRPRPITMPRP stands -0.238; under RRIRRRPPRLPRPRPRPSKGPRP, -0.518; under RRIRVRPPRLPRPRPRPPRPPRP, 0.648.
Under RRIRVRPPRLPRPRPRPFDAPRP stands 0.0132; under RRIRARPPRLPRPRPRPSNYPRP, -0.901.
In the case of RRIRQRPPRLPRPRPRPKYQPRP it was -0.369; in that of RRIRSRPPRLPRPRPRPMRDPRP, 0.0126.
Consider RRIRKRPPRLPRPRPRPHDLPRP, for which the “shrunken log2 fold change” value was 0.00698.
In the case of RRIRMRPPRLPRPRPRPIRSPRP it was -0.0819.
In the case of RRIRKRPPRLPRPRPRPCDEPRP it was 0.121; in that of RRIRYRPPRLPRPRPRPHHHPRP, -1.09; in that of RRIRLRPPRLPRPRPRPSMVPRP, -0.665.
In the case of RRIRKRPPRLPRPRPRPKMVPRP it was -0.031.
Take RRIRFRPPRLPRPRPRPRKHPRP: the “shrunken log2 fold change” value came out at 0.0878.
For RRIRDRPPRLPRPRPRPNLCPRP, the “shrunken log2 fold change” value was 0.0227.
Under RRIRVRPPRLPRPRPRPYRMPRP stands -0.467; under RRIRARPPRLPRPRPRPSLNPRP, -0.0562.
In the case of RRIRYRPPRLPRPRPRPMKWPRP it was 0.00957; in that of RRIRTRPPRLPRPRPRPDWRPRP, 0.0352; in that of RRIRCRPPRLPRPRPRPWWGPRP, 0.0769.
Under RRIRRRPPRLPRPRPRPERIPRP stands 0.0278; under RRIRVRPPRLPRPRPRPCARPRP, -0.0405; under RRIRDRPPRLPRPRPRPDYNPRP, -0.204.
RRIRHRPPRLPRPRPRPRQIPRP: the “shrunken log2 fold change” value was -0.0442.
Under RRIRERPPRLPRPRPRPAESPRP stands -0.049; under RRIRCRPPRLPRPRPRPCGAPRP, 0.285; under RRIRVRPPRLPRPRPRPNPTPRP, -0.325.
For RRIRERPPRLPRPRPRPEQVPRP, the “shrunken log2 fold change” value is -0.0135.
Under RRIRFRPPRLPRPRPRPIIKPRP stands -0.696.
Under RRIRARPPRLPRPRPRPVNGPRP stands -0.133; under RRIRWRPPRLPRPRPRPGTIPRP, -0.283; under RRIRFRPPRLPRPRPRPIRFPRP, -0.233.
In the case of RRIRTRPPRLPRPRPRPHVAPRP it was 0.268.
Take RRIRVRPPRLPRPRPRPEDHPRP: the “shrunken log2 fold change” value is -0.021.
In the case of RRIRVRPPRLPRPRPRPPGAPRP it was 0.595.
In the case of RRIRRRPPRLPRPRPRPFIPPRP it was -0.506; in that of RRIRRRPPRLPRPRPRPLQNPRP, 0.045.
Under RRIRPRPPRLPRPRPRPDGAPRP stands 0.159.
RRIRERPPRLPRPRPRPWCRPRP: the “shrunken log2 fold change” value is -0.126.
Under RRIRARPPRLPRPRPRPGSFPRP stands 0.495.
In the case of RRIRCRPPRLPRPRPRPGTHPRP it was -0.243.
Under RRIRYRPPRLPRPRPRPKKCPRP stands -0.0883.
RRIRERPPRLPRPRPRPSAVPRP: the “shrunken log2 fold change” value was -0.411.
Under RRIRVRPPRLPRPRPRPAMCPRP stands -0.178; under RRIRQRPPRLPRPRPRPLQWPRP, 0.123.
Turning to RRIRVRPPRLPRPRPRPMHFPRP, the “shrunken log2 fold change” value was -0.409.
In the case of RRIRGRPPRLPRPRPRPRAFPRP it was 0.793; in that of RRIRYRPPRLPRPRPRPCRVPRP, 0.00293; in that of RRIRLRPPRLPRPRPRPPNDPRP, 0.0552.
Under RRIRERPPRLPRPRPRPPKQPRP stands 0.0175; under RRIRERPPRLPRPRPRPFSEPRP, 0.0188; under RRIRWRPPRLPRPRPRPLFSPRP, 0.0976.
In the case of RRIRERPPRLPRPRPRPIPPPRP it was 0.0452; in that of RRIRGRPPRLPRPRPRPAEEPRP, 1.15; in that of RRIRKRPPRLPRPRPRPPSDPRP, 0.75.
As to RRIRTRPPRLPRPRPRPHFQPRP, the “shrunken log2 fold change” value is -0.294.
Under RRIRGRPPRLPRPRPRPKHVPRP stands 0.0824; under RRIRVRPPRLPRPRPRPFTDPRP, 0.0809.
Consider RRIRKRPPRLPRPRPRPDCGPRP, for which the “shrunken log2 fold change” value amounted to 0.016.
Under RRIRFRPPRLPRPRPRPRREPRP stands 0.177; under RRIRYRPPRLPRPRPRPEKHPRP, -0.322; under RRIRDRPPRLPRPRPRPHSLPRP, -0.341.
For the sequence RRIRFRPPRLPRPRPRPWQKPRP, the “shrunken log2 fold change” value is -0.097.
In the case of RRIRVRPPRLPRPRPRPDINPRP it was -0.00784; in that of RRIRVRPPRLPRPRPRPCPCPRP, -0.151; in that of RRIRSRPPRLPRPRPRPTVVPRP, -0.112.
In the case of RRIRMRPPRLPRPRPRPLWKPRP it was 0.0435; in that of RRIRDRPPRLPRPRPRPKTEPRP, -0.0167; in that of RRIRARPPRLPRPRPRPQIHPRP, -0.0277.
Consider RRIRMRPPRLPRPRPRPWHYPRP, for which the “shrunken log2 fold change” value is -0.327.
Regarding RRIRKRPPRLPRPRPRPLPMPRP, the “shrunken log2 fold change” value is 0.562.
For the sequence RRIRFRPPRLPRPRPRPDEDPRP, the “shrunken log2 fold change” value came out at 0.181.
In the case of RRIRHRPPRLPRPRPRPRKSPRP it was 0.119; in that of RRIRNRPPRLPRPRPRPYQQPRP, -0.388; in that of RRIRFRPPRLPRPRPRPNKTPRP, -0.172.
In the case of RRIRHRPPRLPRPRPRPNYFPRP it was -0.125; in that of RRIRLRPPRLPRPRPRPHHWPRP, -0.124.
Under RRIRCRPPRLPRPRPRPDDTPRP stands -0.36; under RRIRKRPPRLPRPRPRPDCCPRP, 0.435; under RRIRFRPPRLPRPRPRPERYPRP, 0.0915.
For the sequence RRIRQRPPRLPRPRPRPQGDPRP, the “shrunken log2 fold change” value is -0.00865.
Under RRIRDRPPRLPRPRPRPIFAPRP stands 0.142.
Under RRIRTRPPRLPRPRPRPDVQPRP stands 0.0493.
With RRIRFRPPRLPRPRPRPVRIPRP, the “shrunken log2 fold change” value is -0.0436.
In the case of RRIRPRPPRLPRPRPRPASGPRP, the “shrunken log2 fold change” value is 0.194.
For the sequence RRIRCRPPRLPRPRPRPTNCPRP, the “shrunken log2 fold change” value was -0.282.
In the case of RRIRKRPPRLPRPRPRPPDFPRP it was 0.12; in that of RRIRSRPPRLPRPRPRPARHPRP, 0.277; in that of RRIRNRPPRLPRPRPRPKNNPRP, -0.407.
Under RRIRARPPRLPRPRPRPNTVPRP stands 0.0514.
In the case of RRIRLRPPRLPRPRPRPWWIPRP it was -0.107; in that of RRIRSRPPRLPRPRPRPWVCPRP, 0.101; in that of RRIRCRPPRLPRPRPRPFSWPRP, -0.141.
Regarding RRIRRRPPRLPRPRPRPCLGPRP, the “shrunken log2 fold change” value was -0.0846.
Under RRIRWRPPRLPRPRPRPWIWPRP stands 0.0705.
In the case of RRIRVRPPRLPRPRPRPCPRPRP it was 0.368; in that of RRIRCRPPRLPRPRPRPDGNPRP, -0.158.
In the case of RRIRQRPPRLPRPRPRPETVPRP it was -0.0886.
In the case of RRIRYRPPRLPRPRPRPTFRPRP, the “shrunken log2 fold change” value is -0.0396.
Under RRIRERPPRLPRPRPRPNIAPRP stands 0.0918.
In the case of RRIRIRPPRLPRPRPRPKCSPRP it was 0.0422; in that of RRIRIRPPRLPRPRPRPMMRPRP, 0.116.
In the case of RRIRHRPPRLPRPRPRPRSHPRP it was -0.221.
As for RRIRFRPPRLPRPRPRPIADPRP, the “shrunken log2 fold change” value is -0.0956.
Under RRIRIRPPRLPRPRPRPVPWPRP stands 2.5; under RRIRNRPPRLPRPRPRPPTTPRP, 0.19.
In the case of RRIRPRPPRLPRPRPRPSKVPRP it was -0.223; in that of RRIRCRPPRLPRPRPRPCPQPRP, -0.184.
RRIRDRPPRLPRPRPRPMVKPRP: the “shrunken log2 fold change” value was determined as 0.115.
Take RRIRERPPRLPRPRPRPAYMPRP: the “shrunken log2 fold change” value was -0.505.
